Laboratory results as given in the nanobody polyreactivity screen of Harvey et al. (2022).

Experiment: yeast display, Sf9 membrane polyspecificity reagent, FACS + sequencing; frameworks hold sequencing errors
Summary of the method: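 A nanobody's polyreactivity label depends on the gate it was sorted from. Yeast display cells were stained with 10% biotinylated, detergent-solubilized Sf9 membrane reagent for 1 hour at 4 °C, enriched on streptavidin microbeads and sorted by FACS. The low and high (top ~1%) gates were set on anti-HA fluorescence for expression and streptavidin fluorescence for reagent binding.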

Sequence | polyreactivity (PSR sort gate)
QVQLVESGGGLVQAGGSLRLSCAASGLIFSYKTMGWYRQAPGKERELVAAITSGGRTYYADSVKGRFTISRDNAKNTVYLQMNSLKPEDTAVYYCAVLSKWRYDYWGQGTQVTVSS | high polyreactivity
QVQLVESGGGLVQAGGSLRLSCAASGLIIPKYAMGWYRQAPGKEREFVAAISGRGGTTYYADSVKGRFTISRDNAKNTVYLQMYSLKPEDTAVYYCAAGGPWANIYGNGYWGQGTQVTVSS | high polyreactivity
QVQLVESGGGLVQAGGSLRLSCAASGGIFVFYAMGWYRQAPGKERELVAAITYRGGSTSYADSVKRRFTISRDNAKNTVYLQMNSLKPEDTAVYYCNARRRTWYGFYYWGQGTQVTVSS | high polyreactivity
QVQLQESGGGLVQAGGSLRLSCAASGSISRLDYMGWYRQPSGKERELVAAIDNGSTTYYADSVKGRLTISRDNAKYTVYLQMNSLKPEDTAVYFCAAVRGRGGTHAYWGQGTQVTVSG | low polyreactivity
QVQLVESGGGLVQAGGSLRLSCAASGSIFYKYMGWSRQAPGKERELVAAITWSGGSTYYADSVKGRFTISRDNAKNTVYLQMNSLKPEDPAVYYCAARDYTRYGYGYWGQGTQVTVSS | high polyreactivity
QVHLVESGGGLVQAGGSLRLSCAASGFTFKDYAMGWYRQAPGKHTELVAAISYSGGSTYYADSVKGRFTISRDNAKNTVYLQMYSLKPEDTAVYYCNKGYPYVAYDYWGQGTQVTVSS | high polyreactivity
QVQLVESGGGLVQAGGSLRLSCAASGFTFFDYVMGWYRQAPGKERELVAAISSSGGSTNYADSVKGRFTISRDNAKNTVYLQMNSLKPQDTAVYYCAAEDFWDDVEYWGQGTQVTVSS | low polyreactivity
QVQRVESGGGLVQAGGRLRLICAAAGYTFDYYAMGWYRQAPGKERELVAAISRSGTRTYYADSVKGRFTISRDNAKNTVYLQMYSLKPEVNAVYYLKKAYYLYAGDYWGQGTQVTVSS | high polyreactivity
QDQHVESGGGLVQAGCSLRLSCAASGSIFSWNAMGWYRQAPGKERELVAAIRWDTGSTYYADSVKVRFTISRDKAKNTVYLQMNRLKPEDTAVYYCAADLFDCQLIDGFAVVTYGYWGQGTQVTVSS | low polyreactivity
QVQLVESGGGLVQAGGSLRLSCAASGRTFLTNAMGWYRQAPGKERELVAAISGGGDDTFYADSVKGRFTISRDNAKNTVYLQMNSLKPEDTAVYYCAADWYTPGWRKEEEYWGQGTQVTVSS | low polyreactivity
QVQLVESGGGLVQAGGSLRLSCAASGSTFLYYAMGWYRQAPGKERELVAVISWSGVSTYYADSVKGRFTISRYNAKNTVYLQMNSLKPEDTAVYYCNTGNHYIRTYGYWGLGTQVTVSS | low polyreactivity
QVHLVESGGGLVQAGGSLRLSCAASGITFYIYAMGWYRQAPGTERELVAAISWRTGRTYYADSVKGRFTISRDNAKNTVYLQMNSLKPEYTAVYYCAAGVWVAGAFDYWGQGTQVNVSS | high polyreactivity
QVQLVESGGGLVQAGGSLRLSCAASGIILTVYAMGWYRQAPGKERELVATISRRGGNTYYADSVKGRFTISRDNAKNTVYLQMNSLKPEDTAVYYCNKAYQYGGYYYWGQGTQVTVSS | high polyreactivity
QVQLEESGGGLVQAGGSLRLSCAASGSTFTGYAMGWYRQAPGKERELVAAISISGGRTFYADSVKVRFTISRDNAKNTVYLQMNSLKPEDTAVYYCAAYLRGSKYSFDYWGQGTQVTVSS | high polyreactivity
QVQLVESGGGIVQAGGSLRLSCAASGFIFNTNAMGWYRQAPGKERELVAGISRSGVRTYYADSVKGRFTISRDNAKNTVYLQMNSLKPEDTAVYYCAATSLPRYYYWGQGTQVTVSS | low polyreactivity
QVQLVESGGGLVQAGGSLRLSCAASGITFQNYAMGWYRQSPGKERELVAAITRSGGRTYYADSVKGRFTISRDNAKNTVYLQINSLKPEDTAVYYCAFYGIGRPYWYDYWGQGTQVTVSS | high polyreactivity
QVQLVESGGGLVQAGGSLRLSCAASGIIFVKYARGWSRQAPGKERELVAAITSGGSTYYADSVKGRFTISRDNAKNTVYLQTNSLKPEDTAVYYCNARRNQYLAQYDYWGQGTQVTVSS | high polyreactivity
QVQLGESGGGLCQAGGSLRLSCAASGSIIAGYTMGWYRPAPGNARELVAGIRRGGSTNYADSVKGRVTISRDNAKNTVYLQMNSLKPEDTAVYYCNAQLTRSYVLRTFDYWGQGTQVTVSS | high polyreactivity
QVQLVESGGGLVQAGGSLRLSCAASGSTFYYYAMGWSRQAPGKERELVATITSGGSTNYADSVKGRFTISRDNAKNTVYLQMNSLKPEDTAVYYCNADDGYSVWGYDYWGQGTQVTVSS | low polyreactivity
QVQLVESGGGLVQAGGSLRLSCAASGFTFRVNAMGWYRQAPGKERELVAAITYSGGSTYYADSVKGRFTISRDNAKNTVYLQMNSLKPEDTAVYYCNKARWNSWLYGYHYRGLRSYDYWGQGTQVSVSS | high polyreactivity
QVQLVESGGGLVQAGGSLRLSCAASGSTFYKYAMGWYRPAPGKERELVAAISRGGSTYYADSVKGRFTISRDNAKNTVYLQMNSLKPEDTAVYYCAALYGLGRPQDSTFLFDYWGQGTQVTVSS | low polyreactivity
QVHLVESGGGLVQAGASLRLSCAASGITFRFNAMGWYRQAPGKEREFVAAITYSGDSTYYADSVKGRFTISRDNAKNTVYLQMNSLKPEDTAVYYCAADYYAISRRMFYYWGQGTQVTVSS | low polyreactivity

Sequence | polyreactivity (PSR sort gate)
QVQLVESGGGLVQAGGRLRLSCAASGFTFNWYDMGWYRQAPGKERELVATISTGGGTNYADSVKGRFTITRYNAKNTVYLQMNSLKPEDSAVYYCAADGSAGYLWGYDFEGVYWGQGTQVTVSS | high polyreactivity
QVQLVESGGGLVQAGGSLRLSCAASGSTFVYNDMGWNRQAPGKEREFVAAITYSGSTYYADSVKGRFTISRDNAKNTVYLQMNSLKPEDTAVYYCAAEYVWRFEYWGQGTQVTVSS | low polyreactivity
QVQLVESGGGLVQAGGSLRLSCAASGSTFIVYGMGWYRQAPGKEREFVAAITTRSGSTYYADSVKGRFTISRDNAKNTVYLQMNSLKPEDTAVYYCAAVPGTPRHDYWGQGTQVTVSS | high polyreactivity
QVQLVESGGGLVHAGGSLRLSCAASARIFIAYMAWYRQAPGKERELVAAIDSGASTYYADSVKGRFTISRDNANNTVYLQMNSLKPEDTAVYYCAADVVYDYGGMDYWGQGTQVTVSS | low polyreactivity
QVQLVESGGGLVQAGGSLRLSCAASGRIFDLNVMGWYRQAPGKERELVAAIRSGGRTNYADSVKGRFTISRDNAKNTVYLQMNSLKPEDTAVYYCNVRRGYWHPRYGWANYDYWGQGTQVTVSS | high polyreactivity
QVQLVESGGGLVQAGGRLRLSCAASGRIFKWYPMGLYRQAPGKERELVAAITSGGSTYYADSVKGRFTISRDNAKNTVYLQMNSLNPEDTAVYYCAAPVYLYGTVGRGDYWGQGTQVTVSS | high polyreactivity
QVQLVESVGGLVQAGGSLRLSCAASGRIFTLYAMGWYRQAPGKERELVAAISWSGGSTYYADSVKGRFTISRDNAKNTVYLQMNSLKPEDTAVYYCAATWYRYYSIPRYDSWGQATQVTVSS | high polyreactivity
QVQLVESGGGLVQAGGSLRLSCAASGRNLHYYSMGWYRQAPGKEWELVAAITWSGGSTYYADSVNGRFTISRDNAKNTVYLQMNSLKPVDTSVYYCAARGTDWGQGTQVTVSS | low polyreactivity
QVQLVESGGGLVQAGGSLRLSCAASGLTFKANAMGWYRQAPGKERELVAAITWSGTSTYYADSVKGRFTISRDNAKNTVYLQMNSLKPEDTAVYYCNKPYDVWYHDYDYWGQGTQVTVSS | low polyreactivity
QVQLVESGGGLVQAGGSLRLSCAASGSILAVNAMGWYRQAPGKERELVAAISSRGGSTSYADSVKGRFTISRDNAKNTVYLQMNSLKPEDTAVYYCAVRAVRRLRTSVPVRFYYWGQGTQVTVSS | high polyreactivity
QVHLVESGGGLVQAGRSLRLSCAASGITFVKYAMGCYIQAPGKEMELVATISNSGGSTYYSDSVKGRFTISRDNAKNSVYLQMNSLKPEETAVYYCNALYLVYCDDSSPSLVSEYGYWGQGTQVTVSS | low polyreactivity
QVQLVESGGGLVQAGGSLRLSCAASGINFDDNAMGWYRQAPGKERELVATISDGGRTYYADSVKGRFTISRDNAKNTVYLQMNSQKPEDTAVYYCADRLWWPYSPAWAKMDYGGQGTQVTVSS | low polyreactivity
QVQLVESGGGLVQAGGSLRLSCAASGIILSYYVMGWYRQAPGKERELVAAISLRGGSRTYYADSVNGRFTISRDNAKNTVYLQMNSLKPEDTAVYYCAKLRWVYGRQTLMDYWGQGTQVTVSS | high polyreactivity
QVQLVESGGGLVQAGGSLRLSCAASGSIIGYYTMGWYRQAPGKEREFVAAISWSGGSTYYADSVKGRFTISRDNAKNTVYLQMNSLKPEDTAVYYCNADVYWEYDYCGQGTQVTVSS | low polyreactivity
QVQLVESGGGLVQAGRSLRLSSAASGSIVAPNPMGWYRQAPGKEREYVAAITLDDGRTYYADSVKGRFTISRDNSNNTVYLHMNSRKPEDTAVYYCNAEWRGYSVYWRTRYDSWGQGTHVTVSS | low polyreactivity
QVQLVESGGGLVQAGGSLRLRCAASGSTFGYYSMGWYRQAPGKEMELVAAISKSGGRTYYADSVKGRFTISRDTAKNTVYVQMNSLKPEDTAVYYCNKANGGDEVDYWGQGTQVTVSS | high polyreactivity
QVQLVESGGGLVQAGGSLRLSCAASGRIFAQYAMGWYRQAPGKERELVADISSGVRTNADSVKGRFTISRDNAKNSVYLQMNSLKPEDTAVSYCNAYYIIFTRNDYWGQGTQVTVSS | low polyreactivity
QVQLVESGGGLFQAGGSIRLSCAASGRISEGYAMGWYIQAPGKERELVAAITSSTASTYYADSVKGRFTISRDNAKNTVYLQMNSLKPEDTAVYYCNADYGLYPEDYDYWGQGTQVTVSS | low polyreactivity
QVQLVESGGGLVQEGGSLRLSCAASGFIFHVNAMGWYRQAPGKERELVARITTSGGNTFYADSVKGRFTISRDNAKNTVYLQMNSLKPEDTAVYYCAIRYRYSVGWPVKNSAFGYWGQGTQVTVSS | low polyreactivity
QVQLVESVAGLVQAGGSLRLSCAASGSIFRFYAMGWYRQAPGKERELVAGITWSGASTYYADSVKGRFTISRDNAKNTVYLQMNSLKPEDTAVYYCAKRYRLDGFYYWGQGTQVTVSS | high polyreactivity
QVQLVESGGGLVQAGGSLRLSCAASGRTFVPNAMGWYRQAPGKERELVARISSGDSTYYADSVKGRFTISRDNAKNTVYLQMNSLKPEDTAVYYCAASGRQNGYGRRQYYYWGQGTQVTVSS | high polyreactivity
